Laboratory results: US20180044385A1 (published 2018)
Blank lines part the entries; values can stand above or below the binder they belong to.

Target: human IgG1 scaffold
Assay: SPR

Kd: 3000 nM
B1: WT (other)
chain: LTPAVTTYKLVINGKTLKGETTTKAVDAATAEKVFKQYANDNGVDGEWTYDDATKTFTVTEKPEVI

Kd: 24 nM
B2: A1 (designed binder)
chain: MKGETTTEAVDAATAEKVFKQYANDNGVDGEWTYDDATKTFTVTEKPEVIDASELTPAVTTYKLVINGRTLSGYTTTTAVDAATAEKVFKQYAYVHEVDGEWTYDDATKTFTVTEKPEVIDASELTPAVTTYKLVINGRTLSGETTTKAVDAETAEKAFKQYANDNGVDGVWTYDDATKTFTVTE
